Values of other authors as cited in article PMC9558312.

Experiments:
Experiment in all cases: NMR
Asp101 = Asp101 (UniProt position 119, KKIVSDGNGMN)
Asp119 = Asp119 (UniProt position 137, RCKGTDVQAWI)
Asp18 = Asp18 (UniProt position 36, KRHGLDNYRGY)
Asp48 = Asp48 (UniProt position 66, TNRNTDGSTDY)
Asp52 = Asp52 (UniProt position 70, TDGSTDYGILQ)
Asp66 = Asp66 (UniProt position 84, RWWCNDGRTPG)
Asp87 = Asp87 (UniProt position 105, ALLSSDITASV)
Glu35 = Glu35 (UniProt position 53, CAAKFESNFNT)
Glu7 = Glu7 (UniProt position 25, VFGRCELAAAM)
Asp42 = Asp42 (UniProt position 63, KRGCADNCPKN)
Asp59 = Asp59 (UniProt position 80, VCCSTDKCN--)
Glu17 = Glu17 (UniProt position 38, YKTCPEGKNLC)
His4 = His4 (UniProt position 25, YTLKCHNTQLP)

## Hen egg white lysozyme (HEWL, lysozyme C) (Gallus gallus)
Asp101
  pKa: 4.5
Asp119
  pKa: 3.5
Asp18
  pKa: 2.8
Asp48
  pKa: 1.4
Asp52
  pKa: 3.6
Asp66
  pKa: 1.2
Asp87
  pKa: 2.2
Glu35
  pKa: 6.1
Glu7
  pKa: 2.6

## Cardiotoxin V (cytotoxin 5, CTX A5) (Naja naja atra (Naja atra, Taiwan cobra))
Asp42
  pKa: 3.2
Asp59
  pKa: <2
Glu17
  pKa: 4
His4
  pKa: 5.5
